Conditions in all cases: both partners purified
Assay [1] has as its target T1, recombinant rat OMP (olfactory marker protein) (rat, UniProt P08523 1-163).
T1 construct: olfactory marker protein, rat, recombinant
T1 sequence (looked up): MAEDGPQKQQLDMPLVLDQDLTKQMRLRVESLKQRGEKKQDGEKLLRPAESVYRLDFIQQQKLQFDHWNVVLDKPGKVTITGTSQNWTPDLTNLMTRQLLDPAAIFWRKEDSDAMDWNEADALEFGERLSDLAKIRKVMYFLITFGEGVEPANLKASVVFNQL
The assay can be described thus: SPR; data not shown; peptide immobilised on CM5 chip; OMP flowed over (0-500 nM by the methods), running buffer in the absence or presence of 0.1 mM Ca2+; interaction Ca2+-independent.

The target of assay [2] is T2, Bovine calmodulin (bovine, UniProt P62157 1-149).
T2 construct: calmodulin, bovine, purchased from Sigma; the methods say bovine calmodulin purchased from Sigma; also called CaM; recombinant calmodulin (CaM); source: bought: Sigma
Put plainly: SPR; XIP peptide immobilised on CM5 chip (about 700 RU, carbodiimide chemistry); CaM 10, 25, 50, 100, 250 nM flowed over; Biacore 3000; running buffer NaCl 150 mM, HEPES 10 mM, CaCl2 0.1 mM, pH 7.4; 5 µl/min for 2 minutes; 1:1 Langmuir binding model.

The target in assay [3] is T2, Bovine calmodulin. Put plainly: SPR; Bex1 (50-75) peptide immobilised on CM5 chip; CaM 31.25, 62.5, 125, 250, 500 nM flowed over; running buffer with 0.1 mM Ca2+; steady-state analysis of equilibrium response, nonlinear 1:1 binding isotherm.

We go through two molecules from paper PMC2621343, “Ca^2+ Extrusion by NCX Is Compromised in Olfactory Sensory Neurons of OMP^−/− Mice” (PLoS ONE, 2009).

B1: XIP peptide (NCX1 251-271) (peptide)
peptide: RRLLFYKYVYKRYRAGKQRGM
notes: Immobilised on a CM5 chip by carbodiimide chemistry; also called XIP regulatory-peptide of NCX; source: synthetic peptide, HPLC purified
For the molecule B1, the Kd in assay [1] was 700 nM; in assay [2], 20 ± 6 nM.

B2: CaM binding peptide of Bex1 (Bex1 50-75) (peptide)
peptide: RGGRRRFRVRQPIAHYRWDLMQRVGE
notes: Immobilised on a CM5 chip by carbodiimide chemistry; also called Bex1 peptide; Bex1 (50–75) peptide; source: synthetic peptide, HPLC purified
As for B2, the figures for the Kd in assay [1] and in assay [3] were 90000 ± 12000 nM and 280 nM, respectively.
